Results as given in patent publication CN111690059A (WUHAN INST OF BIOLOGICAL PRODUCTS CO LTD, dated 2020).

Legend:
[1] = target: T1, SARS-CoV-2刺突蛋白S1的RBD结构域重组蛋白(Sino公司，货号40592-V05H) (SARS-CoV-2, UniProt P0DTC2 319-541); test: ELISA, coated RBD 1.0 μg/mL, goat anti-human IgG-HRP detection
T1 construct: domain: RBD结构域; also called RBD结构域的重组蛋白

[2] = target: T2, SARS-CoV-2刺突S1-His重组蛋白(Sino公司，货号:40591-V08H) (SARS-CoV-2, UniProt P0DTC2 16-685); test: ELISA, coated S1-His 1.0 μg/mL, goat anti-human IgG-HRP detection
T2 construct: domain: S1; also called S1蛋白; SARS-CoV-2刺突蛋白S1

[3] = target: T1, SARS-CoV-2刺突蛋白S1的RBD结构域重组蛋白(Sino公司，货号405 …); test: blocking ELISA, coated RBD, competitor His-tagged ACE2
[4] = target: T3, SARS-CoV-2刺突S1亚基蛋白(Sino公司，货号:40591-V02H) (SARS-CoV-2, UniProt P0DTC2 16-685); test: blocking ELISA, coated S1 subunit protein, competitor His-tagged ACE2
T3 construct: domain: S1; also called SARS-CoV-2(2019-nCoV)病毒的刺突蛋白S1

B1: 抗SARS-CoV-2的单克隆抗体1D7 (antibody, V domains shown)
VH: EVQLVESGGGWIQPGGSLRLSCAASGLTVSSNYMSWVRQAPGKGLEWVSVIYSGGSTYYADSVKGRFTISRDNSKNTLYLQMNSLRAEDTAVYYCARDLVVYGMDVWGQGTTVTVSS
VL: AIRMTQSPSSLSASVGDRVTITCRASQSISSYLNWYQQKPGKAPKLLIYAASSLQSGVPSRFSGSGSGTDFTLTISSLQPEDFATYYCQQSYSTLGMYTFGQGTKLEIK
notes: also called 1D7抗体; 人源抗SARS-CoV-2抗体1D7
EC50 [1]: 0.055 nM
EC50 [2]: 0.092 nM
IC50 [3]: 4.1 nM
IC50 [4]: 7.8 nM
